Target: αB11.4, α-crystallin domain construct of human αB-Crystallin (human) (UniProt P02511)
Test: 15N NMR relaxation

“αB11.4, α-crystallin domain construct of human αB-Crystallin (from UniProt P02511 57-158) (domain or fragment)” was tested, and the stoichiometry N was 2.
